# Data published in patent publication US20160200782A1 (MOERAE MATRIX, published 2016).
# Legend:
# Assay in all cases: cell-based or functional assay
# Mnk2(h) = Mnk2(h) (human, UniProt Q9HBH9 1-465, limits assumed)
# ALK(h) = ALK(h) (human, UniProt Q9UM73 1058-1620, limits assumed)
# SRPK1(h) = SRPK1(h) (human, UniProt Q96SB4 1-655, limits assumed)
# Aurora-B(h) = Aurora-B(h) (human, UniProt Q96GD4 1-344)
# SGK(h) = biological target: T1, SGK(h) (human, UniProt O00141 60-431)
# T1 sequence (looked up): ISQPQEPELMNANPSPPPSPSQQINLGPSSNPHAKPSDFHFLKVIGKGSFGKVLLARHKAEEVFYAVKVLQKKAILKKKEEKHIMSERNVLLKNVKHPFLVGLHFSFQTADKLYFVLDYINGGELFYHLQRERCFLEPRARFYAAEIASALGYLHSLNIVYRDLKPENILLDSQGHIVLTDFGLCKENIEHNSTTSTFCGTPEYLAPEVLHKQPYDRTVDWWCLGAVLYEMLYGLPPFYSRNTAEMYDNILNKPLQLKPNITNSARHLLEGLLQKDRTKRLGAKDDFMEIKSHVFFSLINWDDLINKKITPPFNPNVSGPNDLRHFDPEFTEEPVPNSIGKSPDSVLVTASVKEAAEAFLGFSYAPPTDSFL
# LIMK1(h) = LIMK1(h) (human, UniProt P53667 285-638, limits assumed)
# LIMK1(h), sequence (P53667 285-638 limits assumed): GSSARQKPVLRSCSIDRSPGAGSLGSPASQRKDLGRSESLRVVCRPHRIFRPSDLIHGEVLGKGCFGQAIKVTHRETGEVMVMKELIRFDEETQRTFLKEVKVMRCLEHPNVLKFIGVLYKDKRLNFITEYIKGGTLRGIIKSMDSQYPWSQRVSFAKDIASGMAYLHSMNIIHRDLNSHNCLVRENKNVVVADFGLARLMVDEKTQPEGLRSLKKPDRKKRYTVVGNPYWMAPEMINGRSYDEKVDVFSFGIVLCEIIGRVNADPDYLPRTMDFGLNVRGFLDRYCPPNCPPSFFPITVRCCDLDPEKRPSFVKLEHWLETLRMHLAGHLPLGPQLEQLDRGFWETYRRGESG
# eEF-2K(h) = biological target: T2, eEF-2K(h) (human, UniProt O00418 1-725, limits assumed)
# T2 sequence (looked up): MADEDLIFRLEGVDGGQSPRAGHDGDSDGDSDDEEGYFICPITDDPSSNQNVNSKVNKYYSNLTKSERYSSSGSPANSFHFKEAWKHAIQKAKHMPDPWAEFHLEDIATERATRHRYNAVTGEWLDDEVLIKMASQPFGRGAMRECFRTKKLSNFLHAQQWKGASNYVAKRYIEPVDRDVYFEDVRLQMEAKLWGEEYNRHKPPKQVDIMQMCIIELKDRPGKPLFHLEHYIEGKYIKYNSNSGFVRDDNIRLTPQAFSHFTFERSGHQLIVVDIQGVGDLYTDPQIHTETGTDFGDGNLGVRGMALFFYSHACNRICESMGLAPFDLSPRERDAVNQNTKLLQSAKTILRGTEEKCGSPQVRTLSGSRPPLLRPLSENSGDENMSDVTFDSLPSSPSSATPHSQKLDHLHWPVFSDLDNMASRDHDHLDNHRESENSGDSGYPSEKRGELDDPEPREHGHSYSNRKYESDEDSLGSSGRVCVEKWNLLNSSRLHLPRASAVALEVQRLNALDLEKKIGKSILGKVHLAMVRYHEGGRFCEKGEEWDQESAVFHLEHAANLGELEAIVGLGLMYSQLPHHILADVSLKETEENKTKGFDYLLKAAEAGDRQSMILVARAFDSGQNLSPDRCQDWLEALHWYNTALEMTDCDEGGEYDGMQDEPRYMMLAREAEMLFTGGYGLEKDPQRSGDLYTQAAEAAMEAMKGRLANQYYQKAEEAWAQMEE
# EphA2(h) = biological target: T3, EphA2(h) (human, UniProt P29317 559-976, limits assumed)
# T3 sequence (looked up): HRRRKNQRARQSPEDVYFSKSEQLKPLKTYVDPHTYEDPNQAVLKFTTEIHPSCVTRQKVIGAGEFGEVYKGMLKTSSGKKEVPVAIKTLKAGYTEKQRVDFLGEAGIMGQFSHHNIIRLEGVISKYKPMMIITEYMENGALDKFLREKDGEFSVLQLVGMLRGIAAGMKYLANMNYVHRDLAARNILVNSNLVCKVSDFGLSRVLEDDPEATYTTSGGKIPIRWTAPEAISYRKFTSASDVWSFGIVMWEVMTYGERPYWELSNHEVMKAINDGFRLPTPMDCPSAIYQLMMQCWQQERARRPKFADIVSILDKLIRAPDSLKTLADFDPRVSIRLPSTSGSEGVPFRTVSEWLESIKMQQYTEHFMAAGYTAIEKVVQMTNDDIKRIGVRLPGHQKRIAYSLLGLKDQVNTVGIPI
# Plk3(h) = Plk3(h) (human, UniProt Q9H4B4 1-646, limits assumed)
# Plk3(h), sequence (Q9H4B4 whole entry): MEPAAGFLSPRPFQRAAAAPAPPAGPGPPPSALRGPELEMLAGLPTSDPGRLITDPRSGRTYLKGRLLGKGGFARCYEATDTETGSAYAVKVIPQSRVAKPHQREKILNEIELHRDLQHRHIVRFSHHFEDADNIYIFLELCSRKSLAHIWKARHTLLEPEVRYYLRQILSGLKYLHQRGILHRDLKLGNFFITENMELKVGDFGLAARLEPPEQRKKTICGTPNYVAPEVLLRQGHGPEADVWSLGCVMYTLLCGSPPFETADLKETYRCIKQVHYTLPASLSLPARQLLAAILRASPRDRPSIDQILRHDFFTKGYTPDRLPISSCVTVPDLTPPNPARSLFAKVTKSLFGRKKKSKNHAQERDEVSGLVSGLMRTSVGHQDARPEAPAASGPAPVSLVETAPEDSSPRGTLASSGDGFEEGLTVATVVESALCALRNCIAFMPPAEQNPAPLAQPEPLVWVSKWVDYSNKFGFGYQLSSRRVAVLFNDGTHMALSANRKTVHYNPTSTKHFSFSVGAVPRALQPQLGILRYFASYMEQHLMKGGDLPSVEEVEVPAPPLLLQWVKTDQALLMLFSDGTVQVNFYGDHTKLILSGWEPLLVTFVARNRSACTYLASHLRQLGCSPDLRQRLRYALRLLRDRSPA
# TAO2(h) = biological target: T4, TAO2(h) (human, UniProt Q9UL54 1-314, limits assumed)
# T4 sequence (looked up): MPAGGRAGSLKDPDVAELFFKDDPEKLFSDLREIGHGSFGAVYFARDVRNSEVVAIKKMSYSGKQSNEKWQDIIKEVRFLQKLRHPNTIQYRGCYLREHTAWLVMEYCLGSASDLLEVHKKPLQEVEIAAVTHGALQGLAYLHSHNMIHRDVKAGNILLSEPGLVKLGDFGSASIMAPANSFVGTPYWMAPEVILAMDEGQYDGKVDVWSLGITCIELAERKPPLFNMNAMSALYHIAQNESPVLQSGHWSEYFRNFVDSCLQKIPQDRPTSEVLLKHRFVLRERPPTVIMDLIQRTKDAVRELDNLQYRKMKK
# EphA8(h) = biological target: T5, EphA8(h) (human, UniProt P29322 564-1005, limits assumed)
# T5 sequence (looked up): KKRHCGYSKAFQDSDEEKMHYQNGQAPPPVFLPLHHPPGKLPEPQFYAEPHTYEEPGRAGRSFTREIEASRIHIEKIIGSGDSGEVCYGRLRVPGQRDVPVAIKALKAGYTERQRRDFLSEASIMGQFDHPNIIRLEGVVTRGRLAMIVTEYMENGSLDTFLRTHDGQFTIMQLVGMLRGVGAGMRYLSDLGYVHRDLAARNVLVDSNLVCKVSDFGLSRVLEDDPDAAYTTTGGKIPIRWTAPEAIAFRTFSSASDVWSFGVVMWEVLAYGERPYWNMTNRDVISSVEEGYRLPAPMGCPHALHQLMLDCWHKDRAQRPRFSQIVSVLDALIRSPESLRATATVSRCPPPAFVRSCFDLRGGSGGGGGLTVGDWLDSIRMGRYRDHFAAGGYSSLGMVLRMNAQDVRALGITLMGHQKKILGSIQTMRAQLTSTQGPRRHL
# SRPK1(h), sequence (Q96SB4 whole entry): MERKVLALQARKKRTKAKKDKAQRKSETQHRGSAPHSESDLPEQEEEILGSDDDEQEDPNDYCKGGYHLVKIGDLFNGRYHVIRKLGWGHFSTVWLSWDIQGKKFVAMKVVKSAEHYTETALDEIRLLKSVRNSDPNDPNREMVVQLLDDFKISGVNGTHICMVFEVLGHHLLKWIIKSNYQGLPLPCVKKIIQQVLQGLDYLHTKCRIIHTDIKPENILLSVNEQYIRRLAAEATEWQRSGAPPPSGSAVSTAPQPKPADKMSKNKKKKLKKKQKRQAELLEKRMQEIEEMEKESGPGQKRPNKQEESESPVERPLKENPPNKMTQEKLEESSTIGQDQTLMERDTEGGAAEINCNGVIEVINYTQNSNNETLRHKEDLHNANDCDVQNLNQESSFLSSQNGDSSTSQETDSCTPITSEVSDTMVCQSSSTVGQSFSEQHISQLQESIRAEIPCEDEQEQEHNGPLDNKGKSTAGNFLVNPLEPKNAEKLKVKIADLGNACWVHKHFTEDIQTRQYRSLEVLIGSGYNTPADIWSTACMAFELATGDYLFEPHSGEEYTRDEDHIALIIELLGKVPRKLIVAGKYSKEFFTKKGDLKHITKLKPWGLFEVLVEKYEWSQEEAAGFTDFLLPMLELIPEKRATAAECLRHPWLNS
# Aurora-B(h), sequence (Q96GD4 whole entry): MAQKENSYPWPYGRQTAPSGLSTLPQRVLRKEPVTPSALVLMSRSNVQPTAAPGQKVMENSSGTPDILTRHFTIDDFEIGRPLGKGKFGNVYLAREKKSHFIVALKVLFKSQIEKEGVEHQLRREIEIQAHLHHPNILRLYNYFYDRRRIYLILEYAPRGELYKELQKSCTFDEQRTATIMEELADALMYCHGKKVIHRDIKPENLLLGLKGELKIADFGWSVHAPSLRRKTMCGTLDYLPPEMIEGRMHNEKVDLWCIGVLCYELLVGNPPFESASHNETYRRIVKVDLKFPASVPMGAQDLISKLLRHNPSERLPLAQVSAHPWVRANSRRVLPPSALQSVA
# ALK(h), sequence (Q9UM73 1058-1620 limits assumed): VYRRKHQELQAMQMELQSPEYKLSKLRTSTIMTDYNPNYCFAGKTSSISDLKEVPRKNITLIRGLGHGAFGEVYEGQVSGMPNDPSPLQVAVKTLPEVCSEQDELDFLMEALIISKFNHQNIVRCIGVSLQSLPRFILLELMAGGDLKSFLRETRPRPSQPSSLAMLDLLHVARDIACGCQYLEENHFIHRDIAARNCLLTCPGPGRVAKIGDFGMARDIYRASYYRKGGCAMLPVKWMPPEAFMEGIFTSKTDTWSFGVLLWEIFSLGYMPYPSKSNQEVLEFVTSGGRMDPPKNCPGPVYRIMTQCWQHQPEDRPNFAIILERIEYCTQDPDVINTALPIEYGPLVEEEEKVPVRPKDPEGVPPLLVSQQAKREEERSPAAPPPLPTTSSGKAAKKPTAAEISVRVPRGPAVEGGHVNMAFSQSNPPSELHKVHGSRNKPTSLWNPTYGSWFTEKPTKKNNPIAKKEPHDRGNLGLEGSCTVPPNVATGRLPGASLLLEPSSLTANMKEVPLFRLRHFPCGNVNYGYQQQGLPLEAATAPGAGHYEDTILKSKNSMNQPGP
# Mnk2(h), sequence (Q9HBH9 whole entry): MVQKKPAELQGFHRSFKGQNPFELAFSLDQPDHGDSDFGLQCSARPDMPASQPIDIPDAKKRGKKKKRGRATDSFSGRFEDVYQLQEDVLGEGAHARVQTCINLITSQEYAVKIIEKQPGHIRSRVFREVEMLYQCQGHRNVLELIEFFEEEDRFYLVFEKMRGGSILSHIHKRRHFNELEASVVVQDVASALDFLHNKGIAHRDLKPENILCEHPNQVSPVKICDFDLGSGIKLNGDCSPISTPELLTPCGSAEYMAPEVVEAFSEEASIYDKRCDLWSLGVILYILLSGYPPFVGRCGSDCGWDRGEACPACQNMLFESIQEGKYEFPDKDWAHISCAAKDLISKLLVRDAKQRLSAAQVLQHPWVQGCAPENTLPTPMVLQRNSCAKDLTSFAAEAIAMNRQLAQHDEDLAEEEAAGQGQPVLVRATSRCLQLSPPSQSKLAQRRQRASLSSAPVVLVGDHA
Binder,% activity (Mnk2(h)),% activity (ALK(h)),% activity (SRPK1(h)),% activity (Aurora-B(h)),% activity (SGK(h)),% activity (LIMK1(h)),% activity (eEF-2K(h)),% activity (EphA2(h)),% activity (Plk3(h)),% activity (TAO2(h)),% activity (EphA8(h))
FAKLAARLYRKALARQLGVAA [MMI-0300],89%,19%,90%,128%,48%,88%,91%,31%,127%,70%,93%
KAFAKLAARLYRKALARQLGVAA [MMI-0400],86%,16%,96%,150%,54%,92%,43%,17%,129%,74%,146%
